Data from PMC3005623 (Journal of molecular biology, 2010).
Where two headings read alike, the source gives them in different places.

Experiments:
Assay in all cases: negative-stain electron microscopy
[1] = molecular target: Cdc3–Cdc11–(His)6–Cdc12-Cdc10(Δ12–28) complex (Cdc11-Cdc12-Cdc3-Cdc10(Δ12–28) hetero-tetramer) (S. cerevisiae) (UniProt P32457)
[2] = molecular target: Cdc3–Cdc11–(His)6–Cdc12-Cdc10(Δ12–28) complex (Cdc11-Cdc12-Cdc3-Cdc10(Δ12–28) hetero-tetramer) (S. cerevisiae) (UniProt P32457); remark: listed apart in the source
[3] = molecular target: the molecule itself
[4] = molecular target: Cdc12(Δ318–407) (S. cerevisiae)
[5] = molecular target: the molecule itself; remark: listed apart in the source

Molecule: Cdc3–Cdc11–(His)6–Cdc12-Cdc10(Δ12–28) complex (Cdc11-Cdc12-Cdc3-Cdc10(Δ12–28) hetero-tetramer) (from UniProt P32457 1-520; P32458 1-415; P32468 1-407; P25342 1-322)
- percent of particles that are tetramers [1]: 88.3%
- percent of particles that are trimers [1]: 11.7%
- percent of particles that are heptamers [2]: 18.2%
- percent of particles that are hexamers [2]: 10.8%
- percent of particles that are octamers [2]: 21.8%
- percent of particles that are pentamers [2]: 8.03%
- percent of particles that are tetramers [2]: 41.3%

B1: Cdc11 (natural protein, S. cerevisiae, UniProt P32458 1-415, looked up)
chain: MSGIIDASSALRKRKHLKRGITFTVMIVGQSGSGRSTFINTLCGQQVVDTSTTILLPTDTSTEIDLQLREETVELEDDEGVKIQLNIIDTPGFGDSLDNSPSFEIISDYIRHQYDEILLEESRVRRNPRFKDGRVHCCLYLINPTGHGLKEIDVEFIRQLGSLVNIIPVISKSDSLTRDELKLNKKLIMEDIDRWNLPIYNFPFDEDEISDEDYETNMYLRTLLPFAIIGSNEVYEMGGDVGTIRGRKYPWGILDVEDSSISDFVILRNALLISHLHDLKNYTHEILYERYRTEALSGESVAAESIRPNLTKLNGSSSSSTTTRRNTNPFKQSNNINNDVLNPASDMHGQSTGENNETYMTREEQIRLEEERLKAFEERVQQELLLKRQELLQREKELREIEARLEKEAKIKQEE
- binding result [3]: binds
- percent of particles that are heptamers [4]: 31.5%
- percent of particles that are hexamers [4]: 18.5%
- percent of particles that are octamers [4]: 50%

B2: Cdc10 (natural protein, S. cerevisiae, UniProt P25342 1-322, looked up)
chain: MDPLSSVQPASYVGFDTITNQIEHRLLKKGFQFNIMVVGQSGLGKSTLINTLFASHLIDSATGDDISALPVTKTTEMKISTHTLVEDRVRLNINVIDTPGFGDFIDNSKAWEPIVKYIKEQHSQYLRKELTAQRERFITDTRVHAILYFLQPNGKELSRLDVEALKRLTEIANVIPVIGKSDTLTLDERTEFRELIQNEFEKYNFKIYPYDSEELTDEELELNRSVRSIIPFAVVGSENEIEINGETFRGRKTRWSAINVEDINQCDFVYLREFLIRTHLQDLIETTSYIHYEGFRARQLIALKENANSRSSAHMSSNAIQR
- binding result [5]: binds

B3: Cdc10(H24A R25A K28A K29A) (natural protein, S. cerevisiae, UniProt P25342 1-322, looked up)
chain: MDPLSSVQPASYVGFDTITNQIEAALLAAGFQFNIMVVGQSGLGKSTLINTLFASHLIDSATGDDISALPVTKTTEMKISTHTLVEDRVRLNINVIDTPGFGDFIDNSKAWEPIVKYIKEQHSQYLRKELTAQRERFITDTRVHAILYFLQPNGKELSRLDVEALKRLTEIANVIPVIGKSDTLTLDERTEFRELIQNEFEKYNFKIYPYDSEELTDEELELNRSVRSIIPFAVVGSENEIEINGETFRGRKTRWSAINVEDINQCDFVYLREFLIRTHLQDLIETTSYIHYEGFRARQLIALKENANSRSSAHMSSNAIQR
- binding result [5]: binds

B4: Cdc10(I22E) (natural protein, S. cerevisiae, UniProt P25342 1-322, looked up)
chain: MDPLSSVQPASYVGFDTITNQEEHRLLKKGFQFNIMVVGQSGLGKSTLINTLFASHLIDSATGDDISALPVTKTTEMKISTHTLVEDRVRLNINVIDTPGFGDFIDNSKAWEPIVKYIKEQHSQYLRKELTAQRERFITDTRVHAILYFLQPNGKELSRLDVEALKRLTEIANVIPVIGKSDTLTLDERTEFRELIQNEFEKYNFKIYPYDSEELTDEELELNRSVRSIIPFAVVGSENEIEINGETFRGRKTRWSAINVEDINQCDFVYLREFLIRTHLQDLIETTSYIHYEGFRARQLIALKENANSRSSAHMSSNAIQR
- binding result [5]: binds

B5: Cdc3(R111A R112A K115A)–Cdc11–(His)6–Cdc12-Cdc10 complex (complex, S. cerevisiae)
chain 1: MSLKEEQVSIKQDPEQEERQHDQFNDVQIKQESQDHDGVDSQYTNGTQNDDSERFEAAESDVKVEPGLGMGITSSQSEKGQVLPDQPEIKFIRRQINGYVGFANLPKQWHAASIANGFSFNLLCVGPDGIGKTTLMKTLFNNDDIEANLVKDYEEELANDQEEEEGQGEGHENQSQEQRHKVKIKSYESVIEENGVKLNLNVIDTEGFGDFLNNDQKSWDPIIKEIDSRFDQYLDAENKINRHSINDKRIHACLYFIEPTGHYLKPLDLKFMQSVYEKCNLIPVIAKSDILTDEEILSFKKTIMNQLIQSNIELFKPPIYSNDDAENSHLSERLFSSLPYAVIGSNDIVENYSGNQVRGRSYPWGVIEVDNDNHSDFNLLKNLLIKQFMEELKERTSKILYENYRSSKLAKLGIKQDNSVFKEFDPISKQQEEKTLHEAKLAKLEIEMKTVFQQKVSEKEKKLQKSETELFARHKEMKEKLTKQLKALEDKKKQLELSINSASPNVNHSPVPTKKKGFLR
chain 2: MSGIIDASSALRKRKHLKRGITFTVMIVGQSGSGRSTFINTLCGQQVVDTSTTILLPTDTSTEIDLQLREETVELEDDEGVKIQLNIIDTPGFGDSLDNSPSFEIISDYIRHQYDEILLEESRVRRNPRFKDGRVHCCLYLINPTGHGLKEIDVEFIRQLGSLVNIIPVISKSDSLTRDELKLNKKLIMEDIDRWNLPIYNFPFDEDEISDEDYETNMYLRTLLPFAIIGSNEVYEMGGDVGTIRGRKYPWGILDVEDSSISDFVILRNALLISHLHDLKNYTHEILYERYRTEALSGESVAAESIRPNLTKLNGSSSSSTTTRRNTNPFKQSNNINNDVLNPASDMHGQSTGENNETYMTREEQIRLEEERLKAFEERVQQELLLKRQELLQREKELREIEARLEKEAKIKQEE
chain 3: MSAATATAAPVPPPVGISNLPNQRYKIVNEEGGTFTVMLCGESGLGKTTFINTLFQTVLKRADGQQHRQEPIRKTVEIDITRALLEEKHFELRVNVIDTPGFGDNVNNNKAWQPLVDFIDDQHDSYMRQEQQPYRTKKFDLRVHAVLYFIRPTGHGLKPIDIETMKRLSTRANLIPVIAKADTLTAQELQQFKSRIRQVIEAQEIRIFTPPLDADSKEDAKSGSNPDSAAVEHARQLIEAMPFAIVGSEKKFDNGQGTQVVARKYPWGLVEIENDSHCDFRKLRALLLRTYLLDLISTTQEMHYETYRRLRLEGHENTGEGNEDFTLPAIAPARKLSHNPRYKEEENALKKYFTDQVKAEEQRFRQWEQNIVNERIRLNGDLEEIQGKVKKLEEQVKSLQVKKSHLK
chain 4: MDPLSSVQPASYVGFDTITNQIEHRLLKKGFQFNIMVVGQSGLGKSTLINTLFASHLIDSATGDDISALPVTKTTEMKISTHTLVEDRVRLNINVIDTPGFGDFIDNSKAWEPIVKYIKEQHSQYLRKELTAQRERFITDTRVHAILYFLQPNGKELSRLDVEALKRLTEIANVIPVIGKSDTLTLDERTEFRELIQNEFEKYNFKIYPYDSEELTDEELELNRSVRSIIPFAVVGSENEIEINGETFRGRKTRWSAINVEDINQCDFVYLREFLIRTHLQDLIETTSYIHYEGFRARQLIALKENANSRSSAHMSSNAIQR
- binding result [3]: binds

B6: Cdc3(K90A R93A R94A)–Cdc11–(His)6–Cdc12-Cdc10 complex (complex, S. cerevisiae)
chain 1: MSLKEEQVSIKQDPEQEERQHDQFNDVQIKQESQDHDGVDSQYTNGTQNDDSERFEAAESDVKVEPGLGMGITSSQSEKGQVLPDQPEIAFIAAQINGYVGFANLPKQWHRRSIKNGFSFNLLCVGPDGIGKTTLMKTLFNNDDIEANLVKDYEEELANDQEEEEGQGEGHENQSQEQRHKVKIKSYESVIEENGVKLNLNVIDTEGFGDFLNNDQKSWDPIIKEIDSRFDQYLDAENKINRHSINDKRIHACLYFIEPTGHYLKPLDLKFMQSVYEKCNLIPVIAKSDILTDEEILSFKKTIMNQLIQSNIELFKPPIYSNDDAENSHLSERLFSSLPYAVIGSNDIVENYSGNQVRGRSYPWGVIEVDNDNHSDFNLLKNLLIKQFMEELKERTSKILYENYRSSKLAKLGIKQDNSVFKEFDPISKQQEEKTLHEAKLAKLEIEMKTVFQQKVSEKEKKLQKSETELFARHKEMKEKLTKQLKALEDKKKQLELSINSASPNVNHSPVPTKKKGFLR
chain 2: MSGIIDASSALRKRKHLKRGITFTVMIVGQSGSGRSTFINTLCGQQVVDTSTTILLPTDTSTEIDLQLREETVELEDDEGVKIQLNIIDTPGFGDSLDNSPSFEIISDYIRHQYDEILLEESRVRRNPRFKDGRVHCCLYLINPTGHGLKEIDVEFIRQLGSLVNIIPVISKSDSLTRDELKLNKKLIMEDIDRWNLPIYNFPFDEDEISDEDYETNMYLRTLLPFAIIGSNEVYEMGGDVGTIRGRKYPWGILDVEDSSISDFVILRNALLISHLHDLKNYTHEILYERYRTEALSGESVAAESIRPNLTKLNGSSSSSTTTRRNTNPFKQSNNINNDVLNPASDMHGQSTGENNETYMTREEQIRLEEERLKAFEERVQQELLLKRQELLQREKELREIEARLEKEAKIKQEE
chain 3: MSAATATAAPVPPPVGISNLPNQRYKIVNEEGGTFTVMLCGESGLGKTTFINTLFQTVLKRADGQQHRQEPIRKTVEIDITRALLEEKHFELRVNVIDTPGFGDNVNNNKAWQPLVDFIDDQHDSYMRQEQQPYRTKKFDLRVHAVLYFIRPTGHGLKPIDIETMKRLSTRANLIPVIAKADTLTAQELQQFKSRIRQVIEAQEIRIFTPPLDADSKEDAKSGSNPDSAAVEHARQLIEAMPFAIVGSEKKFDNGQGTQVVARKYPWGLVEIENDSHCDFRKLRALLLRTYLLDLISTTQEMHYETYRRLRLEGHENTGEGNEDFTLPAIAPARKLSHNPRYKEEENALKKYFTDQVKAEEQRFRQWEQNIVNERIRLNGDLEEIQGKVKKLEEQVKSLQVKKSHLK
chain 4: MDPLSSVQPASYVGFDTITNQIEHRLLKKGFQFNIMVVGQSGLGKSTLINTLFASHLIDSATGDDISALPVTKTTEMKISTHTLVEDRVRLNINVIDTPGFGDFIDNSKAWEPIVKYIKEQHSQYLRKELTAQRERFITDTRVHAILYFLQPNGKELSRLDVEALKRLTEIANVIPVIGKSDTLTLDERTEFRELIQNEFEKYNFKIYPYDSEELTDEELELNRSVRSIIPFAVVGSENEIEINGETFRGRKTRWSAINVEDINQCDFVYLREFLIRTHLQDLIETTSYIHYEGFRARQLIALKENANSRSSAHMSSNAIQR
- binding result [3]: binds
